To fix the notation:
B1: LCN2_apta22 (ssDNA)
DNA: ATACCAGCTTATTCAATTCCAACGAGGATGCCAAAGAAAGGTGAGGTGGTCCTAAGGGAGATAGTAAGTGCAATCT
B2: LCN2_apta18 (ssDNA)
DNA: ATACCAGCTTATTCAATTCCAGCAAGTAAAGGTTATTTACTAGTTAGGGGCTTCTTGAGATAGTAAGTGCAATCT
B3: LCN2_apta20 (ssDNA)
DNA: ATACCAGCTTATTCAATTCCACAAACGGTACTGGACAGTTCTTATATGCTTACATTTGAGATAGTAAGTGCAATCT
B4: LCN2_apta34 (ssDNA)
DNA: ATACCAGCTTATTCAATTCGGAGCGGTAGTTTGAGGAGGAAACAACCCGGCCTTGGAGAGATAGTAAGTGCAATCT
B5: LCN2_apta33 (ssDNA)
DNA: ATACCAGCTTATTCAATTCACGACGATAGTGCAGTGGATACATTCGGCCCTTACCATGAGATAGTAAGTGCAATCT
B6: LCN2_apta1 (ssDNA)
DNA: ATACCAGCTTATTCAATTGCCACGACTTGGGGAATCCTAAGGGCTGTGAACGCCGTGGAGATAGTAAGTGCAATCT
B7: LCN2_apta30 (ssDNA)
DNA: ATACCAGCTTATTCAATTGCACGGGTAAGAAAACGGGGAACTTGAAAGTAGTGCTGTGAGATAGTAAGTGCAATCT
B8: LCN2_apta15 (ssDNA)
DNA: ATACCAGCTTATTCAATTCCACACCAGTCCTTGTTCGTAGATCACGGTTTCTTCAGGAAGATAGTAAGTGCAATCT
B9: LCN2_apta8 (ssDNA)
DNA: ATACCAGCTTATTCAATTCGACAATAGATCAGAACGCTCGAGTTCGCGAGGTGGGGGAGATAGTAAGTGCAATCT
B10: LCN2_apta27 (ssDNA)
DNA: ATACCAGCTTATTCAATTGCGATAATCTTGGTTTTCTTTTCAGTTTCTTTAGGGCGGGAGATAGTAAGTGCAATCT
B11: LCN2_apta25 (ssDNA)
DNA: ATACCAGCTTATTCAATTGCCACTCGACATGCTTGCCTGTACACTAAAACACTATTCAGATAGTAAGTGCAATCT
B12: LCN2_apta13 (ssDNA)
DNA: ATACCAGCTTATTCAATTCGCGGCCTAACTTTGGAAGTTCCTCAGAATACTCAGTTGAGATAGTAAGTGCAATCT
B13: LCN2_apta7 (ssDNA)
DNA: ATACCAGCTTATTCAATTCCGCGTCACCTCACTGCTCCCACTGCGTTGCGTCTCTAAGATAGTAAGTGCAATCT
B14: LCN2_apta6 (ssDNA)
DNA: ATACCAGCTTATTCAATTGCACGGTACGCTCTTGAGTGATCCACAATTTCTAACCGCGAGATAGTAAGTGCAATCT
B15: LCN2_apta29 (ssDNA)
DNA: ATACCAGCTTATTCAATTCCGTGACAAGTTGCAGGGGCTGTGCGGTTCTTTTTTTTTGAGATAGTAAGTGCAATCT
B16: LCN2_apta24 (ssDNA)
DNA: ATACCAGCTTATTCAATTGGGGAACTGAATTATCAGAGATTTTATTCACCTCGTTGGGAGATAGTAAGTGCAATCT
B17: LCN2_apta19 (ssDNA)
DNA: ATACCAGCTTATTCAATTCGACAAAGGAGCTACGTCTACATAGCGTGGTGAGTGCTTGAGATAGTAAGTGCAATCT
B18: LCN2_apta26 (ssDNA)
DNA: ATACCAGCTTATTCAATTCCAACACCTTGGGTATCCTGTTATATTCACTTGTTGAGTAAGATAGTAAGTGCAATCT
B19: LCN2_apta32 (ssDNA)
DNA: ATACCAGCTTATTCAATTCGAGTCATTGTTTTGCAAAGGATTATGCGTTGTAACGGAGAGATAGTAAGTGCAATCT
B20: LCN2_apta12 (ssDNA)
DNA: ATACCAGCTTATTCAATTCAGGGAAAGGTTACGCGACACATTAGTTTTGAGTCCGTTCAGATAGTAAGTGCAATCT
B21: LCN2_apta4 (ssDNA)
DNA: ATACCAGCTTATTCAATTCGGAGGGCGGAAGCAAAGCGTAACAGAAAGCCAACACGCGAGATAGTAAGTGCAATCT
B22: LCN2_apta10 (ssDNA)
DNA: ATACCAGCTTATTCAATTGGCAGTAGGGCGGGGGGGAGCATGGAGCACATTCTTGTCGAGATAGTAAGTGCAATCT
B23: LCN2_apta5 (ssDNA)
DNA: ATACCAGCTTATTCAATTCCCAGCAATCCATTACTTCGTTAGTTCTAATTACCAACCAGATAGTAAGTGCAATCT
B24: LCN2_apta3 (ssDNA)
DNA: ATACCAGCTTATTCAATTCCCAAGGGCGAGCTGGCGGCTTGTTGCATAAATTCGTGGAGATAGTAAGTGCAATCT
B25: LCN2_apta23 (ssDNA)
DNA: ATACCAGCTTATTCAATTCGTATCAGAATCGCGTGTCACCTTATCTGCCGTATGGGTGAGATAGTAAGTGCAATCT
B26: LCN2_apta31 (ssDNA)
DNA: ATACCAGCTTATTCAATTCCCGATCAGAACATCGGCTCTTATACCCGTTTTGGTCACGAGATAGTAAGTGCAATCT
B27: LCN2_apta17 (ssDNA)
DNA: ATACCAGCTTATTCAATTCACGTGCGACAGGGGGATCTGGCTTTATCCCAGCGTGTTAAGATAGTAAGTGCAATCT
B28: LCN2_apta2 (ssDNA)
DNA: ATACCAGCTTATTCAATTCCACAGTAGGTGAGGTTCACTGAGTTATCCATTGTTGGCAAGATAGTAAGTGCAATCT
B29: LCN2_apta21 (ssDNA)
DNA: ATACCAGCTTATTCAATTCCGGATTTTCGCACGGCTAGCGGGGAACCACTGTCTGGGAGATAGTAAGTGCAATCT
B30: LCN2_apta16 (ssDNA)
DNA: ATACCAGCTTATTCAATTCCGCGTCACCTCACTGCTCCCACCTGCGTTGCGTCTCTAAGATAGTAAGTGCAATCT
B31: LCN2_apta11 (ssDNA)
DNA: ATACCAGCTTATTCAATTGCGATCGACGCCTGGAGAAGTTCCAGCATTAGCGTAAGTGAGATAGTAAGTGCAATCT

As usually defined, the Kd is the free concentration of one partner at which half of the binding sites on the other are occupied at equilibrium, for simple one-to-one binding.

The series deals with Lipocalin-2 (LCN2, NGAL) (human, UniProt P80188 21-198). Description: SPR (BIAcore 3000, CM5 chip); SPR BIAcore 3000, 24 C, LCN2 amine-coupled to CM5 chip; running buffer for the Kd assay not stated (HBS-EP used for SA-chip activation). As to conditions: protein: recombinant; tags: C-terminal polyhistidine. A general note: SPR reads the build-up and loss of mass on a sensor chip optically.
Sequence of Lipocalin-2 (LCN2, NGAL) (P80188 21-198): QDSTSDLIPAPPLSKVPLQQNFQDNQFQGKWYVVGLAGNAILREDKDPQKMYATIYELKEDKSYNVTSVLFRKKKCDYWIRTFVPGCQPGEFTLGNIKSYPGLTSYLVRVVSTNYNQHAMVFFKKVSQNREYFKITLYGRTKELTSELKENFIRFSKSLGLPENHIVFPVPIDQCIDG
Turning to B1, the Kd turned out to be 8440 nM.
Turning to B2, the Kd turned out to be 3380 nM.
On the same count and under the same terms, the result for B3 reads 10.9 nM.
On the same count and under the same terms, to B4 belongs 2870 nM.
With B5, the binding result was “no binding”.
As to B6, the Kd is 0.000647 nM.
The same measure, in the same setting: the result for B7 reads 86.4 nM.
As for B8, the binding result is given as “no binding”.
As for B9, the dissociation constant (Kd) was found to be 3.42 nM.
B10: the Kd was determined as 13.9 nM.
With B11, the binding result was “no binding”.
Consider B12, for which the binding result is recorded as “no binding”.
In the case of B13, the Kd worked out at 1.1 nM.
On the same count and under the same terms, to B14 belongs 0.801 nM; to B15, 565 nM.
Take B16: the binding result is “no binding”.
As to B17, the Kd was 66.6 nM.
Same read-out and setting: the result for B18 reads 118 nM.
B19: the binding result is reported as “no binding”.
On to B20, for which the Kd was determined as 84.5 nM.
For B21, the Kd came out at 0.0609 nM.
The same measure, in the same setting: to B22 belongs 99.9 nM.
For B23, the Kd came out at 0.0816 nM.
Turning to B24, the Kd was 0.00719 nM.
The same measure, in the same setting: to B25 belongs 158 nM.
Still for that read-out and setting: the result for B26 reads 1780 nM.
As to B27, the binding result was “no binding”.
In the case of B28, the Kd was 0.00224 nM.
The same measure, in the same setting: the result for B29 reads 872 nM.
The same measure, in the same setting: to B30 belongs 220 nM.
In the case of B31, the binding result was “no binding”.
